Like-named read-outs stand apart in the source and are kept apart here.
Columns and labels:
[1] = Degradation of MeGal3, products by HPAE-PAD; assay type: biochemical; details: for Gal2 in reaction products / Gal3 in reaction products / Gal in reaction products / MeGal2 in reaction products / MeGal3 in reaction products / MeGal in reaction products: MeGal3 0.25 mg/ml, pH 6.5, 37° C.
Description: (§1) The activity on the galacto-oligosaccharide substrates prepared as described above and on the commercially available galactobiose (Gal2, Megazyme) was studied for the four purified galactanases HIGAL, MTGAL, AAGAL and BLGAL. The buffers and temperatures used were: 25 mM sodium acetate, 0.5 mM CaCl2, 0.005% Triton X-100, pH 6.5 at 37° C. for HIGAL and MTGAL, 50 mM sodium acetate, 1 mM CaCl2, pH 4 at 30° C. for AAGAL and 50 mM Mes, 1 mM CaCl2, pH 6.5 at 30° C. for BLGAL. Enzyme concentrations used were 0.8 μg/ml for HIGAL, 0.2 microgram/ml for MTGAL, and 10 micrograms/ml for AAGAL and BLGAL. With HIGAL and MTGAL substrate concentrations were all 0.25 mg/ml, whereas 0.34 mg/ml Gal2, 0.050 mg/ml Gal3 and 0.067 mg/ml Gal4 were used for AAGAL and BLGAL. Enzyme activity in samples withdrawn after various incubation times was inactivated by heating to 95° C. for 10 min. Compositions of reaction products were analysed using HPAE-PAD (Dionex) applying a PA-100 column and a linear gradient of sodium acetate (0-0.18 M) in 0.15 M NaOH. Response factors of the individual carbohydrates were estimated from reference runs with MeGal3, MeGal4, Gal, Gal2, Gal3 and Gal4. Selected results are shown in Tables 2-8 below (the figures indicating weight percentage of glactooligosaccharides).

[2] = assay type: biochemical; details: for Gal2 in reaction products / Gal3 in reaction products / Gal4 in reaction products / Gal in reaction products: Gal4 0.25 mg/ml, pH 6.5, 37° C.
Description: as §1

[3] = Degradation of MeGal4, products by HPAE-PAD; assay type: biochemical; details: for Gal2 in reaction products / Gal3 in reaction products / Gal4 in reaction products / Gal in reaction products / MeGal2 in reaction products / MeGal3 in reaction products / MeGal4 in reaction products / MeGal in reaction products: MeGal4 0.25 mg/ml, pH 6.5, 37° C.
Description: as §1

[4] = Activity on galactobiose (Gal2); assay type: biochemical; details: in 24 hours; buffer, pH and temperature per enzyme
Description: as §1

B1: MTGAL: GH Family 53 galactanase from Myceliophthora thermophila, SEQ ID NO: 1 (wild type parent) (protein, listed as Myceliophthora thermophila)
chain: ALTYRGVDWSSVVVEERAGVSYKNTNGNAQPLENILAANGVNTVRQRVWVNPADGNYNLDYNIAIAKRAKAAGLGVYIDFHYSDTWADPAHQTMPAGWPSDIDNLSWKLYNYTLDAANKLQNAGIQPTIVSIGNEIRAGLLWPTGRTENWANIARLLHSAAWGIKDSSLSPKPKIMIHLDNGWDWGTQNWWYTNVLKQGTLELSDFDMMGVSFYPFYSSSATLSALKSSLDNMAKTWNKEIAVVETNWPISCPNPRYSFPSDVKNIPFSPEGQTTFITNVANIVSSVSRGVGLFYWEPAWIHNANLGSSCADNTMFSQSGQALSSLSVFQRI
modifications: mat_peptide (1)..()
- Gal2 in reaction products ([1]; incubation time 0.0 hours): 0.0 weight percentage
- Gal3 in reaction products ([1]; incubation time 0.0 hours): 0.0 weight percentage
- Gal in reaction products ([1]; incubation time 0.0 hours): 0.0 weight percentage
- MeGal2 in reaction products ([1]; incubation time 0.0 hours): 0.0 weight percentage
- MeGal3 in reaction products ([1]; incubation time 0.0 hours): 100.0 weight percentage
- MeGal in reaction products ([1]; incubation time 0.0 hours): 0.0 weight percentage
- Gal2 in reaction products ([1]; incubation time 0.5 hours): 0.0 weight percentage
- Gal3 in reaction products ([1]; incubation time 0.5 hours): 0.0 weight percentage
- Gal in reaction products ([1]; incubation time 0.5 hours): 0.0 weight percentage
- MeGal2 in reaction products ([1]; incubation time 0.5 hours): 2.7 weight percentage
- MeGal3 in reaction products ([1]; incubation time 0.5 hours): 87.2 weight percentage
- MeGal in reaction products ([1]; incubation time 0.5 hours): 10.1 weight percentage
- Gal2 in reaction products ([1]; incubation time 2.2 hours): 8.5 weight percentage
- Gal3 in reaction products ([1]; incubation time 2.2 hours): 0.4 weight percentage
- Gal in reaction products ([1]; incubation time 2.2 hours): 14.1 weight percentage
- MeGal2 in reaction products ([1]; incubation time 2.2 hours): 1.9 weight percentage
- MeGal3 in reaction products ([1]; incubation time 2.2 hours): 47.5 weight percentage
- MeGal in reaction products ([1]; incubation time 2.2 hours): 27.6 weight percentage
- Gal2 in reaction products ([1]; incubation time 5.0 hours): 10.9 weight percentage
- Gal3 in reaction products ([1]; incubation time 5.0 hours): 15.7 weight percentage
- Gal in reaction products ([1]; incubation time 5.0 hours): 2.2 weight percentage
- MeGal2 in reaction products ([1]; incubation time 5.0 hours): 3.2 weight percentage
- MeGal3 in reaction products ([1]; incubation time 5.0 hours): 50.6 weight percentage
- MeGal in reaction products ([1]; incubation time 5.0 hours): 17.4 weight percentage
- Gal2 in reaction products ([1]; incubation time 72.0 hours): 37.2 weight percentage
- Gal3 in reaction products ([1]; incubation time 72.0 hours): 23.2 weight percentage
- Gal in reaction products ([1]; incubation time 72.0 hours): 6.5 weight percentage
- MeGal2 in reaction products ([1]; incubation time 72.0 hours): 3.5 weight percentage
- MeGal3 in reaction products ([1]; incubation time 72.0 hours): 1.3 weight percentage
- MeGal in reaction products ([1]; incubation time 72.0 hours): 28.3 weight percentage
- Release of MeGal versus MeGal2 from MeGal3 ([1]; in words): much higher release of MeGal than MeGal2
- Products of Gal4 (galactotetraose) degradation [2]: mainly to Gal and Gal2, whereas Gal3 did not accumulate
- Gal2 in reaction products ([2]; incubation time 0.0 hours): 0.0 weight percentage
- Gal3 in reaction products ([2]; incubation time 0.0 hours): 42.0 weight percentage
- Gal4 in reaction products ([2]; incubation time 0.0 hours): 58.0 weight percentage
- Gal in reaction products ([2]; incubation time 0.0 hours): 0.0 weight percentage
- Gal2 in reaction products ([2]; incubation time 0.5 hours): 9.9 weight percentage
- Gal3 in reaction products ([2]; incubation time 0.5 hours): 27.7 weight percentage
- Gal4 in reaction products ([2]; incubation time 0.5 hours): 50.8 weight percentage
- Gal in reaction products ([2]; incubation time 0.5 hours): 11.6 weight percentage
- Gal2 in reaction products ([2]; incubation time 2.2 hours): 17.4 weight percentage
- Gal3 in reaction products ([2]; incubation time 2.2 hours): 45.5 weight percentage
- Gal4 in reaction products ([2]; incubation time 2.2 hours): 22.3 weight percentage
- Gal in reaction products ([2]; incubation time 2.2 hours): 14.9 weight percentage
- Gal2 in reaction products ([2]; incubation time 5.0 hours): 29.1 weight percentage
- Gal3 in reaction products ([2]; incubation time 5.0 hours): 29.5 weight percentage
- Gal4 in reaction products ([2]; incubation time 5.0 hours): 12.1 weight percentage
- Gal in reaction products ([2]; incubation time 5.0 hours): 29.2 weight percentage
- Gal2 in reaction products ([2]; incubation time 72.0 hours): 43.5 weight percentage
- Gal3 in reaction products ([2]; incubation time 72.0 hours): 1.5 weight percentage
- Gal4 in reaction products ([2]; incubation time 72.0 hours): 0.0 weight percentage
- Gal in reaction products ([2]; incubation time 72.0 hours): 54.9 weight percentage
- Gal2 in reaction products ([3]; incubation time 0.0 hours): 0.0 weight percentage
- Gal3 in reaction products ([3]; incubation time 0.0 hours): 0.0 weight percentage
- Gal4 in reaction products ([3]; incubation time 0.0 hours): 0.0 weight percentage
- Gal in reaction products ([3]; incubation time 0.0 hours): 0.0 weight percentage
- MeGal2 in reaction products ([3]; incubation time 0.0 hours): 4.7 weight percentage
- MeGal3 in reaction products ([3]; incubation time 0.0 hours): 14.8 weight percentage
- MeGal4 in reaction products ([3]; incubation time 0.0 hours): 79.0 weight percentage
- MeGal in reaction products ([3]; incubation time 0.0 hours): 1.6 weight percentage
- Gal2 in reaction products ([3]; incubation time 0.5 hours): 3.3 weight percentage
- Gal3 in reaction products ([3]; incubation time 0.5 hours): 13.7 weight percentage
- Gal4 in reaction products ([3]; incubation time 0.5 hours): 2.5 weight percentage
- Gal in reaction products ([3]; incubation time 0.5 hours): 0.9 weight percentage
- MeGal2 in reaction products ([3]; incubation time 0.5 hours): 9.6 weight percentage
- MeGal3 in reaction products ([3]; incubation time 0.5 hours): 17.1 weight percentage
- MeGal4 in reaction products ([3]; incubation time 0.5 hours): 43.9 weight percentage
- MeGal in reaction products ([3]; incubation time 0.5 hours): 8.9 weight percentage
- Gal2 in reaction products ([3]; incubation time 2.0 hours): 10.9 weight percentage
- Gal3 in reaction products ([3]; incubation time 2.0 hours): 23.9 weight percentage
- Gal4 in reaction products ([3]; incubation time 2.0 hours): 3.7 weight percentage
- Gal in reaction products ([3]; incubation time 2.0 hours): 4.8 weight percentage
- MeGal2 in reaction products ([3]; incubation time 2.0 hours): 13.6 weight percentage
- MeGal3 in reaction products ([3]; incubation time 2.0 hours): 16.0 weight percentage
- MeGal4 in reaction products ([3]; incubation time 2.0 hours): 10.9 weight percentage
- MeGal in reaction products ([3]; incubation time 2.0 hours): 16.2 weight percentage
- Gal2 in reaction products ([3]; incubation time 5.0 hours): 20.1 weight percentage
- Gal3 in reaction products ([3]; incubation time 5.0 hours): 17.9 weight percentage
- Gal4 in reaction products ([3]; incubation time 5.0 hours): 2.9 weight percentage
- Gal in reaction products ([3]; incubation time 5.0 hours): 12.4 weight percentage
- MeGal2 in reaction products ([3]; incubation time 5.0 hours): 13.9 weight percentage
- MeGal3 in reaction products ([3]; incubation time 5.0 hours): 9.9 weight percentage
- MeGal4 in reaction products ([3]; incubation time 5.0 hours): 3.5 weight percentage
- MeGal in reaction products ([3]; incubation time 5.0 hours): 19.3 weight percentage
- Gal2 in reaction products ([3]; incubation time 24.0 hours): 32.7 weight percentage
- Gal3 in reaction products ([3]; incubation time 24.0 hours): 3.4 weight percentage
- Gal4 in reaction products ([3]; incubation time 24.0 hours): 1.1 weight percentage
- Gal in reaction products ([3]; incubation time 24.0 hours): 24.2 weight percentage
- MeGal2 in reaction products ([3]; incubation time 24.0 hours): 13.3 weight percentage
- MeGal3 in reaction products ([3]; incubation time 24.0 hours): 2.3 weight percentage
- MeGal4 in reaction products ([3]; incubation time 24.0 hours): 2.9 weight percentage
- MeGal in reaction products ([3]; incubation time 24.0 hours): 20.1 weight percentage
- Products from MeGal4 ([3]; in words, buffer, pH and temperature per enzyme): initial release mainly of MeGal, MeGal2 and Gal3 and some Gal2 but little Gal
- Activity on Gal2 [4]: Neither of the enzymes HIGAL, MTGAL, AAGAL or BLGAL had any detectable activity

From US8367390B2, “Galactanase variants” (Novozymes A/S, priority 2002, dated 2013)
